Where a chain is given by its changes, count along the chain named. One block for each binder: values may come before it.
Assays:
murine IL-11 [1] = target: T1, murine IL-11 (mouse, UniProt P47873 22-199); assay: SPR 37 C, antibody captured, IL-11 as analyte
T1 construct: Invigate, e.g. lot #C210819-09; biotinylated where coated in the ELISA; also called mIL-11; mIL11
T1 sequence: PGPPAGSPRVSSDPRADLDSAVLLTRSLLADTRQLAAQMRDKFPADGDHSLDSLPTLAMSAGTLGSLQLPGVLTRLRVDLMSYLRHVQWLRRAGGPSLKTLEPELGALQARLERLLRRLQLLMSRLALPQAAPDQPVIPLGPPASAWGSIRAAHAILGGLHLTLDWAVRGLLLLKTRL
Description: (§1) To assess the binding kinetics and affinity of anti-IL-11 antibodies as well as their species cross-reactivity profile, binding assays were conducted using surface plasmon resonance (SPR). Binding assays were performed on a Biacore T200 instrument or on a Biacore 8K+ instrument (Cytiva) at 37° C. using assay buffer HBS EP+, 300 mM NaCl, 1 mg/ml BSA, 0.05% NaN3. Antibodies were captured either via anti-human Fc IgGs (“Human antibody capture kit”, Order No. BR100839, Cytiva) or via anti-mouse Fc IgGs (“Mouse antibody capture kit, Order No. BR100383, Cytiva) covalently amine coupled to a Series S CM5 sensor chip (Cytiva) depending on the isotype. The amine coupling was carried out according to the manufacturer's instructions using 1-ethyl-3-(3-dimethylaminopropyl) carbodiimide hydrochloride (EDC), N-hydroxysuccinimide (NHS) and ethanolamine HCl, pH 8.5 (“Amine Coupling Kit” BR-1000-50, Cytiva.). Human, mouse, cynomolgus or rat IL-11 was used as analyte at several dilutions within the concentration range from 0.05-200 nM. For binding assays with only one concentration 200 nM IL-11 was used. The sensor surface was regenerated with glycine pH 1.7 after each antigen injection. Obtained sensorgrams were double referenced (subtraction of reference flow cell signal and buffer injection) and were fitted to a 1:1 Langmuir binding model to derive kinetic data using the Biacore T200 Evaluation software or the Biacore Insight software. If no value is reported, there was either no binding or very low binding and multiphasic binding behavior. Values below 1E-12 were considered to be below the dynamic range of the instrument and set to <1E-12.

human IL-11 [2] = target: T2, human IL-11 (human, UniProt P20809 22-199); assay: SPR 37 C, antibody captured, IL-11 as analyte
T2 construct: Invigate, e.g. lot #C121021-19; biotinylated where coated in the ELISA; also called hIL-11; hIL11
T2 sequence: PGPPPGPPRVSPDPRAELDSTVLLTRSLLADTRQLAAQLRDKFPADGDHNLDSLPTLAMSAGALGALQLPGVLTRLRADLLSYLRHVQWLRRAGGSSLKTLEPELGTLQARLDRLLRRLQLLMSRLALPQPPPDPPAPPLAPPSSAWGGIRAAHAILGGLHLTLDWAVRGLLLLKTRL
Description: as §1

cynomolgus IL-11 [3] = target: T3, cynomolgus IL-11 (cynomolgus, UniProt P20808 22-199); assay: SPR 37 C, antibody captured, IL-11 as analyte
T3 construct: Invigate, lot #C290621-19; also called cIL11; cynoL-11
T3 sequence: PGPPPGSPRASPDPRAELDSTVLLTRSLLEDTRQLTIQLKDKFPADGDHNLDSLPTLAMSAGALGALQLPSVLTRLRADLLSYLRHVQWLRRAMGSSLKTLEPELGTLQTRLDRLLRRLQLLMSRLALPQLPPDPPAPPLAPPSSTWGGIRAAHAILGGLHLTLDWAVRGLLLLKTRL
Description: as §1

rat IL-11 [4] = target: T4, rat IL-11 (rat, UniProt Q99MF5 22-199); assay: SPR 37 C, antibody captured, IL-11 as analyte
T4 construct: Invigate, e.g. lot #C301019-19; also called rIL11
T4 sequence: T1 sequence with S50N, L84F, G94A, V137A, I138V
Description: as §1

murine IL-11 [5] = target: T1, murine IL-11; assay: Di-complex ELISA, competitor canine IL11RA-Fc on coated IL-11;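 as to Efficacy (%): signal drop relative to signal at lowest antibody concentration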
Description: (§2) The assay is performed using streptavidin coated microtiter plates (Greiner bio-one, #781997). In a first step, 10 nM biotinylated mouse IL-11 (Invigate, Germany, e.g., lot #C210819-09) or human IL-11 (Invigate, Germany, e.g., lot #C121021-19) is coated in 25 μl PBS on the plate at 4° C. overnight. Next day, the plate is washed three times with 50 μl PBST and then blocked with 50 μl SmartBlock (Candor, #113125) for one hour at room temperature (RT). After additional three washes with PBST, 25 μl of a mixture of the murine anti IL-11 antibody and recombinant canine IL11RA-Fc fusion protein (Sino Biological, #70078-D02H) in PBS-T, 10% Smartblock are added simultaneously to the plate and incubated for one hour at RT. […] After three additional washes with PBS-T, 25 μl anti-human-POD (Sigma, #A0170) in PBS-T, 10% Smartblock is added and incubated for 1 hour at RT. After a final three washes with PBS-T, 25 μl AmplexRed (Fisher Scientific, A12222), 1/1000 in PBS, 0,003% H₂O₂, is added as substrate and incubated for 15 min at RT in the dark. Then, the fluorescence is measured with a plate reader at 535/595 nm. Signals from dose responses were used to calculate IC50 values (GraphPad Prism). Efficacy was calculated as [(signal measured at lowest antibody concentration−signal measured at the highest antibody concentration)×100] divided by (signal measured at lowest antibody concentration−signal measured in the absence of IL11Ra).
(§3) IgG converted antibodies were subjected to the experimental assay procedure described in Example 18.

human IL-11 [6] = target: T2, human IL-11; assay: as above
Description: as §2, §3

murine IL-11 [7] = target: T1, murine IL-11; assay: cell-based or functional assay
human IL-11 [8] = target: T2, human IL-11; assay: cell-based or functional assay
cynomolgus IL-11 [9] = target: T3, cynomolgus IL-11; assay: cell-based or functional assay
rat IL-11 [10] = target: T4, rat IL-11; assay: cell-based or functional assay
human IL-11 [11] = target: T5, human IL-11 (human, UniProt P20809 22-199); assay: SPR; limit told of 12 single-site germlining mutants; antigen not given, SPR run on human and mouse IL-11
T5 construct: bought from Invigate; also called hIL-11; hIL11
T5 sequence: T2 sequence

murine IL-11 [12] = target: T6, murine IL-11 (mouse, UniProt P47873 22-199); assay: as above
T6 construct: bought from Invigate; also called mIL-11; mIL11
T6 sequence: T1 sequence

human IL-11 [13] = target: T5, human IL-11; assay: cell-based or functional assay; remark: listed apart in the source
murine IL-11 [14] = target: T6, murine IL-11; assay: cell-based or functional assay; remark: listed apart in the source
human IL-11 [15] = target: T5, human IL-11; assay: cell-based or functional assay; remark: listed apart in the source
murine IL-11 [16] = target: T6, murine IL-11; assay: cell-based or functional assay; remark: listed apart in the source

Kd (murine IL-11 [1]): 0.11 nM | Kd (human IL-11 [2]): 0.09 nM | binding result (cynomolgus IL-11 [3]): no binding (tested: IL-11 up to 200 nM) | Kd (rat IL-11 [4]): 0.29 nM | Efficacy (%) (murine IL-11 [5]): 1.1% | Efficacy (%) (human IL-11 [6]): 0.3% | RGA Efficacy (%) (murine IL-11 [7]): 100% | RGA IC50 (murine IL-11 [7]): 0.91 nM | RGA Efficacy (%) (human IL-11 [8]): 99.7% | RGA IC50 (human IL-11 [8]): 1.7 nM | RGA Efficacy (%) (cynomolgus IL-11 [9]): 58.6% | RGA Efficacy (%) (rat IL-11 [10]): 101% | RGA IC50 (rat IL-11 [10]): 1.3 nM
B1: TPP-29520 (antibody, mouse IgG1)
heavy: QVQLVESGGGVVQPGRSLRLSCAASGFTFSHYDMHWVRQAPGKGLEWVAVISYSGSVKFYADSVKGRFTISRDNSKNTLYLQMNSLRAEDTAVYYCARTPGSHFDYWGQGTLVTVSSAKTTPPSVYPLAPGSAAQTNSMVTLGCLVKGYFPEPVTVTWNSGSLSSGVHTFPAVLQSDLYTLSSSVTVPSSTWPSETVTCNVAHPASSTKVDKKIVPRDCGCKPCICTVPEVSSVFIFPPKPKDVLTITLTPKVTCVVVDISKDDPEVQFSWFVDDVEVHTAQTQPREEQFNSTFRSVSELPIMHQDWLNGKEFKCRVNSAAFPAPIEKTISKTKGRPKAPQVYTIPPPKEQMAKDKVSLTCMITDFFPEDITVEWQWNGQPAENYKNTQPIMDTDGSYFVYSKLNVQKSNWEAGNTFTCSVLHEGLHNHHTEKSLSHSPGK
light: QSVLTQPPSASGTPGQRVTISCSGSSSNIGSNYVNWYQQLPGTAPKLLIYYDDLRPSGVPDRFSGSKSGTSASLAISGLRSEDEADYYCSAWDDSLSGVVFGGGTKLTVLGQPKSSPSVTLFPPSSEELETNKATLVCTITDFYPGVVTVDWKVDGTPVTQGMETTQPSKQSNNKYMASSYLTLTARAWERHSSYSCQVTHEGHTVEKSLSRADCS
notes: mIgG1, Lambda

Kd (murine IL-11 [1]): 0.029 nM | Kd (human IL-11 [2]): 0.034 nM | Kd (cynomolgus IL-11 [3]): 24 nM | Kd (rat IL-11 [4]): 0.34 nM | Efficacy (%) (murine IL-11 [5]): 3.6% | Efficacy (%) (human IL-11 [6]): 0% | RGA Efficacy (%) (murine IL-11 [7]): 101% | RGA IC50 (murine IL-11 [7]): 0.78 nM | RGA Efficacy (%) (human IL-11 [8]): 98.6% | RGA IC50 (human IL-11 [8]): 1.6 nM | RGA Efficacy (%) (cynomolgus IL-11 [9]): 52% | RGA Efficacy (%) (rat IL-11 [10]): 101% | RGA IC50 (rat IL-11 [10]): 1.6 nM
B2: TPP-29522 (antibody, mouse IgG1)
heavy: B1 heavy with S54E, V57N, S102F
light: B1 light
notes: mIgG1, Lambda

Kd (murine IL-11 [1]): 0.098 nM | Kd (human IL-11 [2]): 0.18 nM | binding result (cynomolgus IL-11 [3]): no binding (tested: IL-11 up to 200 nM) | Kd (rat IL-11 [4]): 2.1 nM | Efficacy (%) (murine IL-11 [5]): 12.1% | Efficacy (%) (human IL-11 [6]): 1.7% | RGA Efficacy (%) (murine IL-11 [7]): 103% | RGA IC50 (murine IL-11 [7]): 0.76 nM | RGA Efficacy (%) (human IL-11 [8]): 99.2% | RGA IC50 (human IL-11 [8]): 1.9 nM | RGA Efficacy (%) (cynomolgus IL-11 [9]): 60% | RGA Efficacy (%) (rat IL-11 [10]): 98.9% | RGA IC50 (rat IL-11 [10]): 1.8 nM
B3: TPP-29521 (antibody, mouse IgG1)
heavy: B1 heavy with S54E, V57N, S102F
light: B1 light with N35S
notes: mIgG1, Lambda

Kd (human IL-11 [11]): < 19 nM | Kd (murine IL-11 [12]): < 19 nM | IC50, RGA 1 (human IL-11 [13]): 58 nM | IC50, RGA 2 (human IL-11 [13]): 13 nM | IC50, RGA 1 (murine IL-11 [14]): 31 nM | IC50, RGA 2 (murine IL-11 [14]): 13 nM | RGA potency (mean) (human IL-11 [15]): < 170 nM | RGA potency (mean) (murine IL-11 [16]): < 170 nM
B4: TPP-31293 (antibody, IgG4, V domains shown)
VH: EVQLLESGGGLVQPGGSLRLSCAASGFTFSHYDMNWVRQAPGKGLEWVGVISYDGSNKFYADFVKGRFTISRDNSKNTLYLQMNSLRAEDTAVYYCARTPGSHFDYWGQGTLVTVSS
VL: QSVLTQPPSASGTPGQRVTISCSGSSSNIGNNAVNWYQQLPGTAPKLLIYYDDLLPSGVPDRFSGSKSGTSASLAISGLRSEDEADYYCSAWDDSLNGVVFGGGTKLTVL
notes: hIgG4 SPLE, lambda

Kd (murine IL-11 [1]): 2.4 nM | Kd (human IL-11 [2]): 2.1 nM | binding result (cynomolgus IL-11 [3]): no binding (tested: IL-11 up to 200 nM) | Kd (rat IL-11 [4]): 4.1 nM | Efficacy (%) (murine IL-11 [5]): 93% | IC50 (murine IL-11 [5]): 6.8 nM | Efficacy (%) (human IL-11 [6]): 93.3% | IC50 (human IL-11 [6]): 10 nM | RGA Efficacy (%) (murine IL-11 [7]): 88.9% | RGA IC50 (murine IL-11 [7]): 7.9 nM | RGA Efficacy (%) (human IL-11 [8]): 64% | RGA Efficacy (%) (cynomolgus IL-11 [9]): 21.9% | RGA Efficacy (%) (rat IL-11 [10]): 62.2% | RGA IC50 (rat IL-11 [10]): 14 nM
B5: TPP-23580 (antibody, mouse IgG1, kappa)
heavy: EVQLVQSGAEVKKPGASVKISCKASGYTFTDYNMDWVKQAPGQRLEWIGDINPHNGGPIYNQKFTGRATLTVDKSASTAYMELSSLRSEDTAVYYCARGELGHWYFDVWGQGTTVTVSSAKTTPPSVYPLAPGSAAQTNSMVTLGCLVKGYFPEPVTVTWNSGSLSSGVHTFPAVLQSDLYTLSSSVTVPSSTWPSETVTCNVAHPASSTKVDKKIVPRDCGCKPCICTVPEVSSVFIFPPKPKDVLTITLTPKVTCVVVDISKDDPEVQFSWFVDDVEVHTAQTQPREEQFNSTFRSVSELPIMHQDWLNGKEFKCRVNSAAFPAPIEKTISKTKGRPKAPQVYTIPPPKEQMAKDKVSLTCMITDFFPEDITVEWQWNGQPAENYKNTQPIMDTDGSYFVYSKLNVQKSNWEAGNTFTCSVLHEGLHNHHTEKSLSHSPGK
light: DIVLTQSPASLALSPGERATLSCRASKSVSTSGYSYIHWYQQKPGQPPRLLIYLASNLDSGVPARFSGSGSGTDFTLNIHPLEEEDFATYYCQHSRDLPPTFGQGTKLEIKRADAAPTVSIFPPSSEQLTSGGASVVCFLNNFYPKDINVKWKIDGSERQNGVLNSWTDQDSKDSTYSMSSTLTLTKDEYERHNSYTCEATHKTSTSPIVKSFNRNEC
notes: text calls it the mouse IgG1 version of the WO2019238882 antibody; also called BSN 3C6 2.2-2.1-mIgG1Kappa

— patent US20240317847A1 (Bayer, published 2024)
